The values below come from paper doi:10.1101/2024.12.23.630100 (bioRxiv, 2024).

Square brackets hold non-standard residues; d marks the D form. Ends that are not written are not given here. pY = N[C@@H](Cc1ccc(OP(=O)(O)O)cc1)C(=O)O

For experiment [1], the target named is T1, SHP2 tandem domain N-SH2-C-SH2-SHP2 1-222 (human, UniProt Q06124 1-222).
T1 sequence (looked up): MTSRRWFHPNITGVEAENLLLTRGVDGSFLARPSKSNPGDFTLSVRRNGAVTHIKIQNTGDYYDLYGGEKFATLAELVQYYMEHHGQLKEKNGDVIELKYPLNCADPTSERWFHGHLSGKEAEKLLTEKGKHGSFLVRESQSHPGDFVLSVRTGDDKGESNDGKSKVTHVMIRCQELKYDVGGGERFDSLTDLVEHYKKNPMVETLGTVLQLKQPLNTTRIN
The experiment can be described thus: ITC. (In general: ITC needs no label: the signal is the heat of the interaction.)

The target in experiment [2] is T2, SHP2 C-SH2 domain 102-220 (human, UniProt Q06124 102-220).
T2 sequence (looked up): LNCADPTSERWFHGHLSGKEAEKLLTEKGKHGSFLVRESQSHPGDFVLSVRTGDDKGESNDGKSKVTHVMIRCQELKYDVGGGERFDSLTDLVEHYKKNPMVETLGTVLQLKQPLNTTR
The experiment can be described thus: ITC.

B1: pY627pY659-Gab1 613-694 (bis-phosphorylated fragment of Grb2-associated binding protein 1) (peptide, UniProt Q13480 613-694, looked up)
chain: SSPMIKPKGDKQVEYLDLDLDSGKSTPPRKQKSSGSGSSVADERVDYVVVDQQKTLALKSTREAWTDGRQSTESETPAKSVK
modifications: phosphotyrosine at 627 and 659
On to B1, for which the affinity in experiment [1], expressed as Kd, was 37 ± 13 nM.

B2: pY659-Gab1 655-677 monophosphorylated peptide (peptide, UniProt Q13480 655-677, looked up)
peptide: ERVD[pY]VVVDQQKTLALKSTREAW
For B2, in experiment [2], the Kd (as a rule, the free concentration of one partner at which half of the binding sites on the other are occupied at equilibrium, for simple one-to-one binding) was determined as 4000 nM.

B3: pY659-Gab1 655-666 monophosphorylated peptide (C-terminally truncated) (peptide, UniProt Q13480 655-666, looked up)
peptide: ERVD[pY]VVVDQQK
For B3, the “fold reduction of affinity against pY659-Gab1 655-677” value in experiment [2] is 10 fold.
